Results published in patent US20240216513A1, “FATTY ACID-BIFUNCTIONAL DEGRADER CONJUGATES AND THEIR METHODS OF USE” (Novartis AG, priority 2021, published 2024).

Assays:
[1] = BTK FAC plasma stability assay, PBS buffer arm; format: physicochemical; settings: for Plasma stability (h) PBS: incubation to 24 h
In short: (§1)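 Stability in PBS buffer or EDTA-treated plasma is followed over 24 h at 38 °C with shaking. Protein precipitation with acetonitrile (glyburide 0.2 µM as internal standard) stops each timepoint, and LC-MS/MS gives analyte-to-standard area ratios.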

[2] = BTK FAC plasma stability assay, mouse plasma; format: in vitro ADME; settings: for Plasma stability (h) mouse: incubation to 24 h
In short: as §1

[3] = BTK FAC plasma stability assay, rat plasma; format: in vitro ADME; settings: for Plasma stability (h) rat: incubation to 24 h
In short: as §1

[4] = BTK FAC plasma stability assay, dog plasma; format: in vitro ADME
[5] = target: T1, BTK C481S (Homo sapiens, UniProt Q06187, C481S); assay: PD screen in TMD8 BTK C481S mutant tumor-bearing mice, BTK levels and compound concentrations in blood and tumor; format: in vivo, mouse; settings: i.v.; 25 umol/kg
T1 construct: endogenous in cells; host or cells: TMD8 BTK C481S mutant tumour xenografts in mice
T1 sequence (Q06187 whole entry C481S): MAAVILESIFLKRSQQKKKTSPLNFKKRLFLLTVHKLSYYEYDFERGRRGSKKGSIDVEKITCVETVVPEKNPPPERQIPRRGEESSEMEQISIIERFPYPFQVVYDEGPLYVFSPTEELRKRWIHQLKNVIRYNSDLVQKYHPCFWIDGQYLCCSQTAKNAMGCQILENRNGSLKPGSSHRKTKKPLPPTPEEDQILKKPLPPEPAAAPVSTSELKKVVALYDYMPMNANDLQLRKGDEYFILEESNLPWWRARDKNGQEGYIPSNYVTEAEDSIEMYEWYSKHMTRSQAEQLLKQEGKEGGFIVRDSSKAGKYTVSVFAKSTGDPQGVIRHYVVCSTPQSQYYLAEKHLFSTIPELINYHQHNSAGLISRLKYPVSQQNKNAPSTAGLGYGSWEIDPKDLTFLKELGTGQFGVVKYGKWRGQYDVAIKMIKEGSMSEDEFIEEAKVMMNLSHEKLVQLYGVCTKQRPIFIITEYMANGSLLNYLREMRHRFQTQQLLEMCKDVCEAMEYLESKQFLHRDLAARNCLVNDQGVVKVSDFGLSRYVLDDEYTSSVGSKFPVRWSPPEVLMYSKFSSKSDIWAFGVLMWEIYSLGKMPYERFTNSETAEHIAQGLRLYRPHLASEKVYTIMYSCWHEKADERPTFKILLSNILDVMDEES
Method: All animal studies were conducted in accordance with ethics and procedures covered by permit nos. BS-1975 issued by the Kantonales Veterinäramt Basel-Stadt and in strict adherence to guidelines of the Eidgenössisches Tierschutzgesetz and the Eidgenössische Tierschutzverordnung, Switzerland. All animals had access to food and water ad libitum and were identified with transponders. They were housed in a specific pathogen-free facility with a 12-h light/12-h dark cycle. For PD screen experiments in TMD8 BTK C481S mutant tumor-bearing mice, FAC was injected once. Animals were randomized into groups of 2 and tissue samples collected at day 0, 4, 7 and in some studies day 10 as well. Blood samples were collected and tumors were excised, weighed, frozen in liquid nitrogen and cryogenic dry pulverized with the CryoPrep™ system (model CP-02, Covaris). Concentrations of compounds in blood and tumors were determined by UPLC/MS-MS and BTK levels were analyzed by Meso Scale Discovery.

For `CCCCCCCCCCCN(C(=O)CCCCCCCCCC(=O)O)C(CCC(=O)NCCOCCOCCOCCOCCOCCOCCOCCOCCOCCOCCOCCOCCC(=O)NCC(=O)NCN(C(=O)c1ccc(C(C)(C)O)cc1F)c1cc(F)cc(-c2ncnc3[nH]c(-c4ccc(CCN5CCC6(CC5)CCN(C(=O)c5ccc(OC)c(N7CCC(=O)NC7=O)c5)CC6)cc4)cc23)c1C)C(=O)O` (stereo not drawn) [Example A36, 51-Carboxy-2-(3-(6-(4-(2-(9-(3-(2,4-dioxotetrahydropyrimidin-1(2H)-yl)-4-methoxybenzoyl)-3,9-diazaspiro[5.5]undecan-3-yl)ethyl)phenyl)-7H-pyrrolo[2,3-d]pyrimidin-4-yl)-5-fluoro-2-methylphenyl)-1-(2-fluoro-4-(2-hydroxypropan-2-yl)phenyl)-1,5,8,48,53-pentaoxo-52-undecyl-11,14,17,20,23,26,29,32,35,38,41,44-dodecaoxa-2,4,7,47,52-pentaazatrihexacontan-63-oic acid], the “% Release of degrader after 24 h PBS” value [1] was 0%, the “Plasma stability (h) PBS” value [1] was >48 h and the “% Release of degrader after 24 h mouse” value [2] was 0.7%. The “Plasma stability (h) mouse” value [2] was 38.6 h, the “% Release of degrader after 24 h rat” value [3] was 0% and the “Plasma stability (h) rat” value [3] was >48 h. The “Plasma stability (h) dog” value [4] was >48 h, the “% Release of degrader after 24 h dog” value [4] was 0% and the “Duration of BTK degradation in mouse ≥90%” value (“Duration … in mouse ≥90%” below) [5] was 10 days.
With `CCCCCCCCCCCN(C(=O)CCCCCCCCCC(=O)O)C(CCC(=O)NCCOCCOCCOCCOCCOCCOCCOCCOCCOCCOCCOCCOCCC(=O)N[C@@H](C)C(=O)OC(C)(C)c1ccc(C(=O)Nc2cc(F)cc(-c3ncnc4[nH]c(-c5ccc(CCN6CCC7(CC6)CCN(C(=O)c6ccc(OC)c(N8CCC(=O)NC8=O)c6)CC7)cc5)cc34)c2C)c(F)c1)C(=O)O` (stereo partly drawn) [Example A16, (5S)-50-Carboxy-2-(4-((3-(6-(4-(2-(9-(3-(2,4-dioxotetrahydropyrimidin-1(2H)-yl)-4-methoxybenzoyl)-3,9-diazaspiro[5.5]undecan-3-yl)ethyl)phenyl)-7H-pyrrolo[2,3-d]pyrimidin-4-yl)-5-fluoro-2-methylphenyl)carbamoyl)-3-fluorophenyl)-2,5-dimethyl-4,7,47,52-tetraoxo-51-undecyl-3,10,13,16,19,22,25,28,31,34,37,40,43-tridecaoxa-6,46,51-triazadohexacontan-62-oic acid] the “% Release of degrader after 24 h PBS” value [1] was 2%, the “Plasma stability (h) PBS” value [1] was >48 h and the “% Release of degrader after 24 h mouse” value [2] was 1.9%. For the same molecule, the “Plasma stability (h) mouse” value [2] was >48 h, the “% Release of degrader after 24 h rat” value [3] was 11% and the “Plasma stability (h) rat” value [3] was >48 h. For the same molecule, the “Plasma stability (h) dog” value [4] was 31.2 h, the “% Release of degrader after 24 h dog” value [4] was 5% and the “Duration … in mouse ≥90%” value [5] was 4 days.
For `CCCCCCCCCCCN(C(=O)CCCCCCCCCC(=O)O)C(CCC(=O)NCCOCCOCCOCCOCCOCCOCCOCCOCCOCCOCCOCCOCCC(=O)NCc1cc(C(=O)OC(C)(C)c2ccc(C(=O)Nc3cc(F)cc(-c4ncnc5[nH]c(-c6ccc(CCN7CCC8(CC7)CCN(C(=O)c7ccc(OC)c(N9CCC(=O)NC9=O)c7)CC8)cc6)cc45)c3C)c(F)c2)ccn1)C(=O)O` (stereo not drawn) [Example A26, 46-Carboxy-1-(4-(((2-(4-((3-(6-(4-(2-(9-(3-(2,4-dioxotetrahydropyrimidin-1(2H)-yl)-4-methoxybenzoyl)-3,9-diazaspiro[5.5]undecan-3-yl)ethyl)phenyl)-7H-pyrrolo[2,3-d]pyrimidin-4-yl)-5-fluoro-2-methylphenyl)carbamoyl)-3-fluorophenyl)propan-2-yl)oxy)carbonyl)pyridin-2-yl)-3,43,48-trioxo-47-undecyl-6,9,12,15,18,21,24,27,30,33,36,39-dodecaoxa-2,42,47-triazaoctapentacontan-58-oic acid], the “% Release of degrader after 24 h PBS” value [1] was 7%, the “Plasma stability (h) PBS” value [1] was >48 h and the “% Release of degrader after 24 h mouse” value [2] was 20.4%. For the same molecule, the “Plasma stability (h) mouse” value [2] was 30.5 h, the “% Release of degrader after 24 h rat” value [3] was 7.6% and the “Plasma stability (h) rat” value [3] was >48 h. The “Plasma stability (h) dog” value [4] was 39.2 h, the “% Release of degrader after 24 h dog” value [4] was 10.9% and the “Duration … in mouse ≥90%” value [5] was 7 days.
